pKd: −log10 of the molar value. Values belong to the sequence of their own block, whether it stands above or below them.
Key:
HLA-A*80:01 = assay: IEDB peptide-MHC binding, purified MHC/direct/fluorescence; filed as Kd, often an IC50 or EC50 that approximates it; ≥ and ≤ were set here for values at or beyond the usual limits of such assays
HLA-A*02:01 [1] = assay: IEDB peptide-MHC binding, purified MHC/competitive/radioactivity; filed as Kd, often an IC50 or EC50 that approximates it; ≥ and ≤ were set here for values at or beyond the usual limits of such assays
HLA-A*02:17 = assay: as above
HLA-B*27:05 = assay: IEDB peptide-MHC binding, purified MHC/direct/fluorescence; filed as Kd, often an IC50 or EC50 that approximates it; ≥ and ≤ were set here for values at or beyond the usual limits of such assays
HLA-A*02:01 [2] = assay: as above
HLA-B*35:01 = assay: as above
HLA-B*15:01 [3] = assay: as above
HLA-A*01:01 [4] = assay: as above
HLA-B*39:01 = assay: as above; settings: source organism: Giardia lamblia ATCC 50803
HLA-B*07:02 = assay: as above
HLA-A*69:01 = assay: as above
HLA-B*58:01 = assay: as above
HLA-A*26:01 = assay: as above
HLA-A*31:01 [5] = assay: as above
HLA-B*08:01 = assay: as above
HLA-B*44:02 = assay: as above; settings: source organism: Giardia lamblia ATCC 50803
HLA-B*40:01 = assay: as above
HLA-A*11:01 = assay: as above
HLA-A*03:01 [6] = assay: as above
HLA-A*31:01 [7] = assay: IEDB peptide-MHC binding, purified MHC/competitive/fluorescence; filed as Kd, often an IC50 or EC50 that approximates it; ≥ and ≤ were set here for values at or beyond the usual limits of such assays
HLA-A*24:03 = assay: IEDB peptide-MHC binding, purified MHC/direct/fluorescence; filed as Kd, often an IC50 or EC50 that approximates it; ≥ and ≤ were set here for values at or beyond the usual limits of such assays
HLA-A*01:01 [8] = assay: IEDB peptide-MHC binding, purified MHC/competitive/radioactivity; filed as Kd, often an IC50 or EC50 that approximates it; ≥ and ≤ were set here for values at or beyond the usual limits of such assays; settings: source organism: Dengue virus 4 Philippines/H241/1956
HLA-A*02:06 = assay: as above
HLA-A*02:03 = assay: as above
HLA-A*29:02 [9] = assay: IEDB peptide-MHC binding, purified MHC/competitive/fluorescence; filed as Kd, often an IC50 or EC50 that approximates it; ≥ and ≤ were set here for values at or beyond the usual limits of such assays; settings: source organism: Mycobacterium tuberculosis variant bovis BCG str. Pasteur 1173P2
HLA-A*03:01 [10] = assay: as above
HLA-A*68:02 = assay: IEDB peptide-MHC binding, purified MHC/competitive/radioactivity; filed as Kd, often an IC50 or EC50 that approximates it; ≥ and ≤ were set here for values at or beyond the usual limits of such assays
HLA-A*68:01 = assay: as above; settings: source organism: Lassa virus Josiah
HLA-A*33:01 = assay: as above; settings: source organism: Lassa virus Josiah
HLA-B*15:01 [11] = assay: IEDB peptide-MHC binding, purified MHC/competitive/fluorescence; filed as Kd, often an IC50 or EC50 that approximates it; ≥ and ≤ were set here for values at or beyond the usual limits of such assays; settings: source organism: Escherichia coli O157:H7 str. EDL933
HLA-A*29:02 [12] = assay: IEDB peptide-MHC binding, purified MHC/direct/fluorescence; filed as Kd, often an IC50 or EC50 that approximates it; ≥ and ≤ were set here for values at or beyond the usual limits of such assays; settings: source organism: Mammarenavirus juninense
[13] = source organism: Dengue virus 1 Singapore/S275/1990
[14] = source organism: Dengue virus 3 China/80-2/1980
[15] = source organism: Giardia lamblia ATCC 50803
[16] = source organism: Yersinia pestis
[17] = source organism: Mammarenavirus lassaense
[18] = source organism: Corynebacterium glutamicum
[19] = source organism: Dengue virus 4 Philippines/H241/1956
[20] = source organism: Dengue virus 1 Brazil/97-11/1997
[21] = source organism: Bacillus anthracis str. A2012
[22] = source organism: Shigella sonnei Ss046
[23] = source organism: Escherichia coli O157:H7
[24] = source organism: Dengue virus 2 Jamaica/1409/1983
[25] = source organism: Mammarenavirus juninense
[26] = source organism: Haemophilus influenzae

Sequence: AIDLDPVVY
pKd (HLA-A*80:01; [13]): ≤ 5.30

Sequence: ALFSGVSWIM
pKd (HLA-A*02:01 [1]; [14]): 8.18 | pKd (HLA-A*02:17; [14]): 6.69

Sequence: ARADGILRF
pKd (HLA-B*27:05; [15]): 6.70 | pKd (HLA-A*02:01 [2]; [15]): ≤ 4.70 | pKd (HLA-B*35:01; [15]): 5.39 | pKd (HLA-B*15:01 [3]; [15]): ≤ 4.70 | pKd (HLA-A*01:01 [4]; [15]): ≤ 4.70 | pKd (HLA-B*39:01): 5.59 | pKd (HLA-B*07:02; [15]): ≤ 4.70 | pKd (HLA-A*69:01; [15]): ≤ 4.70 | pKd (HLA-B*58:01; [15]): ≤ 4.70 | pKd (HLA-A*26:01; [15]): ≤ 4.70 | pKd (HLA-A*31:01 [5]; [15]): ≤ 4.70 | pKd (HLA-B*08:01; [15]): ≤ 4.70 | pKd (HLA-B*44:02): ≤ 4.70 | pKd (HLA-B*40:01; [15]): 5.50 | pKd (HLA-A*11:01; [15]): ≤ 4.70 | pKd (HLA-A*03:01 [6]; [15]): ≤ 4.70

Sequence: AVFEIFFRK
pKd (HLA-A*11:01; source organism: Mycobacterium tuberculosis): 7.90 | pKd (HLA-A*31:01 [7]; source organism: Mycobacterium tuberculosis variant bovis BCG str. Pasteur 1173P2): 7.21

Sequence: DLRPYGLIK
pKd (HLA-A*01:01 [4]; [16]): ≤ 4.70 | pKd (HLA-A*80:01; [16]): ≤ 4.70

Sequence: DTPGERNPY
pKd (HLA-A*01:01 [4]; [17]): ≤ 4.70 | pKd (HLA-A*80:01; [17]): ≤ 4.70

pKd (HLA-B*27:05; [18]): ≤ 4.70 | pKd (HLA-A*02:01 [2]; [18]): ≤ 4.70 | pKd (HLA-B*35:01; [18]): 8.29 | pKd (HLA-B*15:01 [3]; [18]): 6.53 | pKd (HLA-A*01:01 [4]; [18]): ≤ 4.70 | pKd (HLA-A*24:03; [18]): ≤ 4.70 | pKd (HLA-B*07:02; [18]): 6.91 | pKd (HLA-B*58:01; [18]): 5.62 | pKd (HLA-A*26:01; [18]): ≤ 4.70 | pKd (HLA-A*31:01 [5]; [18]): ≤ 4.70 | pKd (HLA-B*08:01; [18]): 5.63 | pKd (HLA-B*40:01; [18]): 5.59 | pKd (HLA-A*11:01; [18]): ≤ 4.70 | pKd (HLA-A*03:01 [6]; [18]): ≤ 4.70
Sequence: FAAAAARTL

Sequence: FIDGISLGL
pKd (HLA-A*02:01 [1]; [19]): 7.72 | pKd (HLA-A*01:01 [8]): 5.82 | pKd (HLA-A*02:06; [19]): 7.49 | pKd (HLA-A*02:17; [19]): 7.25

Sequence: ILNPYMPSV
pKd (HLA-A*02:01 [1]; [13]): 8.37 | pKd (HLA-A*02:06; [20]): 8.30 | pKd (HLA-A*02:17; [13]): 8.45 | pKd (HLA-A*02:03; [20]): 8.70

Sequence: KILNPYMPSV
pKd (HLA-A*02:01 [1]; [13]): 8.32 | pKd (HLA-A*02:06; [20]): 8.29 | pKd (HLA-A*02:17; [13]): 8.11 | pKd (HLA-A*02:03; [20]): 7.31

Sequence: KLRMVTGLR
pKd (HLA-A*03:01 [6]; source organism: Influenza A virus (A/Liaoning/25/2000(H1N1))): 6.44 | pKd (HLA-A*31:01 [7]; source organism: Influenza A virus (A/Bangkok/10/1983(H1N1))): 7.35

Sequence: LAIDRDDLY
pKd (HLA-A*29:02 [9]): 8.28

Sequence: LLLSFTSFR
pKd (HLA-A*31:01 [7]; [21]): 8.59 | pKd (HLA-A*03:01 [10]; [21]): 7.64

Sequence: MQLSRLTLR
pKd (HLA-A*31:01 [7]; [22]): 8.21 | pKd (HLA-A*03:01 [10]; [22]): 5.46

Sequence: MTLWYMWQV
pKd (HLA-A*02:01 [1]; [19]): 7.86 | pKd (HLA-A*02:06; [19]): 8.57 | pKd (HLA-A*02:17; [19]): 7.56 | pKd (HLA-A*68:02; [19]): 7.95

Sequence: MVLAFITFL
pKd (HLA-A*02:01 [1]; [19]): 7.77 | pKd (HLA-A*02:06; [19]): 8.46 | pKd (HLA-A*02:17; [19]): 8.40 | pKd (HLA-A*68:02; [19]): 7.72

Sequence: RTRDIYISR
pKd (HLA-A*11:01; [17]): ≤ 4.70 | pKd (HLA-A*03:01 [6]; [17]): 7.01 | pKd (HLA-A*31:01 [7]; source organism: Lassa virus GA391): 8.32 | pKd (HLA-A*68:01): 6.08 | pKd (HLA-A*33:01): 7.65

Sequence: RVIRTVREK
pKd (HLA-A*01:01 [4]; [23]): ≤ 4.70 | pKd (HLA-A*80:01; [23]): ≤ 4.70

Sequence: TMTDDIGMGV
pKd (HLA-A*02:01 [1]; [24]): 7.67 | pKd (HLA-A*02:06; [24]): 8.25 | pKd (HLA-A*02:17; [24]): 6.50 | pKd (HLA-A*68:02; [24]): 6.94 | pKd (HLA-A*02:03; [24]): 8.12

pKd (HLA-B*15:01 [11]): ≤ 4.70 | pKd (HLA-A*31:01 [7]; source organism: Escherichia coli O157:H7 str. EDL933): 8.77
Sequence: VLIGRRWFR

Sequence: VSDRPVMRY
pKd (HLA-A*29:02 [12]): 6.93 | pKd (HLA-A*01:01 [4]; [25]): 6.73 | pKd (HLA-A*80:01; [25]): 6.44

pKd (HLA-B*27:05; [26]): ≤ 4.70 | pKd (HLA-A*02:01 [2]; [26]): 6.18 | pKd (HLA-B*35:01; [26]): 6.54 | pKd (HLA-B*15:01 [3]; [26]): 4.98 | pKd (HLA-A*01:01 [4]; [26]): ≤ 4.70 | pKd (HLA-A*24:03; [26]): 6.05 | pKd (HLA-A*69:01; [26]): ≤ 4.70 | pKd (HLA-B*58:01; [26]): ≤ 4.70 | pKd (HLA-A*26:01; [26]): ≤ 4.70 | pKd (HLA-A*31:01 [5]; [26]): ≤ 4.70 | pKd (HLA-B*08:01; [26]): ≤ 4.70 | pKd (HLA-B*40:01; [26]): ≤ 4.70 | pKd (HLA-A*11:01; [26]): ≤ 4.70 | pKd (HLA-A*03:01 [6]; [26]): ≤ 4.70
Sequence: YATVAGHEG

Sequence: YVVIAILTV
pKd (HLA-A*02:01 [1]; [24]): 6.60 | pKd (HLA-A*02:06; [24]): 7.91 | pKd (HLA-A*02:17; [24]): 6.29 | pKd (HLA-A*68:02; [24]): 7.58

— the Immune Epitope Database (IEDB)
